Consider 1 variant from IntAct's records for PubMed 17174311.

The chains are these.
B1: Serine/threonine-protein kinase PLK4 (Mus musculus), Q64702 (parent)
chain: MAACIGERIEDFKVGNLLGKGSFAGVYRAESIHTGLEVAIKMIDKKAMYKAGMVQRVQNEVKIHCQLKHPSVLELYNYFEDNNYVYLVLEMCHNGEMNRYLKNRMKPFSEREARHFMHQIITGMLYLHSHGILHRDLTLSNILLTRNMNIKIADFGLATQLNMPHEKHYTLCGTPNYISPEIATRSAHGLESDIWSLGCMFYTLLIGRPPFDTDTVKNTLNKVVLADYEMPAFLSREAQDLIHQLLRRNPADRLSLSSVLDHPFMSRNPSPKSKDVGTVEDSMDSGHATLSTTITASSGTSLSGSLLDRRLLVGQPLPNKITVFQKNKNSSDFSSGDGSNFCTQWGNPEQEANSRGRGRVIEDAEERPHSRYLRRAHSSDRASPSNQSRAKTYSVERCHSVEMLSKPRRSLDENQHSSNHHCLGKTPFPFADQTPQMEMVQQWFGNLQMNAHLGETNEHHTVSPNRDFQDYPDLQDTLRNAWTDTRASKNADTSANVHAVKQLSAMKYMSAHHHKPEVMPQEPGLHPHSEQSKNRSMESTLGYQKPTLRSITSPLIAHRLKPIRQKTKKAVVSILDSEEVCVELLRECASEGYVKEVLQISSDGTMITVYYPNDGRGFPLADRPPLPTDNISRYSFDNLPEKYWRKYQYASRFIQLVRSKTPKITYFTRYAKCILMENSPGADFEVWFYDGAKIHKTENLIHIIEKTGISYNLKNENEVTSLKEEVKVYMDHANEGHRICLSLESVISEEEKRSRGSSFFPIIVGRKPGNTSSPKALSAPPVDPSCCKGEQASASRLSVNSAAFPTQSPGLSPSTVTVEGLGHTATATGTGVSSSLPKSAQLLKSVFVKNVGWATQLTSGAVWVQFNDGSQLVVQAGVSSISYTSPDGQTTRYGENEKLPEYIKQKLQCLSSILLMFSNPTPNFQ

The variants in the first test derive from B1. The following applies: with MBP.
With D154N, the “effect of a mutation on the interaction” value was “disrupting interaction”.

The variants in the next test derive from B1. The following applies: with ccnb3_human CCNB3, Q8WWL7.
Chain of ccnb3_human CCNB3, Q8WWL7 (Q8WWL7 whole entry): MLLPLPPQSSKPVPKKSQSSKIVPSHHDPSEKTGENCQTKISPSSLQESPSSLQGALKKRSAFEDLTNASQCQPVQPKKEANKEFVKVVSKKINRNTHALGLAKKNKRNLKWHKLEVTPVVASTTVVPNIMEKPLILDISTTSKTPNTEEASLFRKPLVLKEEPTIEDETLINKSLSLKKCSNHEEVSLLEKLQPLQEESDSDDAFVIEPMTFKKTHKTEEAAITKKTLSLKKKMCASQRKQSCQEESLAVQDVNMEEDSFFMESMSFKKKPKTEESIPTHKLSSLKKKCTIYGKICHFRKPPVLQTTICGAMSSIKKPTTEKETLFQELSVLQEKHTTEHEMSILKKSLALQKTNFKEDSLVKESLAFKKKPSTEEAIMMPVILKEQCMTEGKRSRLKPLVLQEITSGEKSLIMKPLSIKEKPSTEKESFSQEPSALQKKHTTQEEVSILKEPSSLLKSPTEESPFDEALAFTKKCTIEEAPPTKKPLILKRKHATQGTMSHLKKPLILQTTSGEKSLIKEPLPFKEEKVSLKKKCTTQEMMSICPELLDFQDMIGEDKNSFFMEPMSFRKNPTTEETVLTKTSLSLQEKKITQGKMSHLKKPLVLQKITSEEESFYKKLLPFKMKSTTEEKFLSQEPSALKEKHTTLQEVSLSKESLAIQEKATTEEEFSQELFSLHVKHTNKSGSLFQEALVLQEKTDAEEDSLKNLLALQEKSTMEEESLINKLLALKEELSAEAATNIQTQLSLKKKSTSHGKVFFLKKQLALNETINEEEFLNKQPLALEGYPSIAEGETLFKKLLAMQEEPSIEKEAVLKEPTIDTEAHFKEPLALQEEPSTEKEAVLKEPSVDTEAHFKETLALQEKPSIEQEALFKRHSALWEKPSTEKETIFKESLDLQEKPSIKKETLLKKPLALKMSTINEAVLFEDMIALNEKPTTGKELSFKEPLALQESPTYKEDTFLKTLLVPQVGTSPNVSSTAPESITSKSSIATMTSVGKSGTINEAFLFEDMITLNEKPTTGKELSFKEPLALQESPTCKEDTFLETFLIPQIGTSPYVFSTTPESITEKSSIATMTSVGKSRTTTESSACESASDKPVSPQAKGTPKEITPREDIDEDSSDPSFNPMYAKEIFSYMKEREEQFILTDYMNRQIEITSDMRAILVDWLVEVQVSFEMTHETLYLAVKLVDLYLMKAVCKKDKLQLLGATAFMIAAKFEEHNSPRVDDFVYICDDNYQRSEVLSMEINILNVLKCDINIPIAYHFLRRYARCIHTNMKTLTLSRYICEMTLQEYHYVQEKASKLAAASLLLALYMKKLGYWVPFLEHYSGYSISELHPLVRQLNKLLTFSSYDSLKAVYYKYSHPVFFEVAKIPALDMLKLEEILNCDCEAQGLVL
Consider D154N, for which the “effect of a mutation on the interaction” value is given as “disrupting interaction”.
